Test results: article PMC3894413

Target: BCL-XL (UniProt Q07817)
Test: SPR

UniProt Q07817, sequence (Q07817 whole entry): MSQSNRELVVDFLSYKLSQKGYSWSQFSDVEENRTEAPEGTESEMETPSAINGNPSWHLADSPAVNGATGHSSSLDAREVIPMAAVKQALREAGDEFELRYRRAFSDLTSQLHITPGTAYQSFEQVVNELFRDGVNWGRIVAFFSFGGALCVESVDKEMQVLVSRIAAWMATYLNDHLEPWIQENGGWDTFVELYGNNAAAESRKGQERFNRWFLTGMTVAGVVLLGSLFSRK

B1: BADS BH3 peptide (peptide)
peptide: NLWAAQRYGRELRRMSDEFVDSFKKG
A fold higher affinity than BIMS2A BH3 for MCL-1 of 20 fold was found for B1 in this work.
